From PMC5656587, “Structure determination and activity manipulation of the turfgrass ABA receptor FePYR1” (Scientific Reports, 2017) come the findings set out here.

Changes are numbered by the printed parent chain. Numbers in names are those of the source.

One data set concerns the target T1, FePYR1-ABA-AtHAB1 (Festuca elata, UniProt A0A2D1UXN2).
T1 construct: H6-SUMO-FePYR1 and biotin-MBP-AtHAB1 (172-511), E. coli; tags kept for AlphaScreen; with Protein phosphatase 2C 16 (HAB1, Arabidopsis thaliana)
T1 sequence (A0A2D1UXN2 1-212): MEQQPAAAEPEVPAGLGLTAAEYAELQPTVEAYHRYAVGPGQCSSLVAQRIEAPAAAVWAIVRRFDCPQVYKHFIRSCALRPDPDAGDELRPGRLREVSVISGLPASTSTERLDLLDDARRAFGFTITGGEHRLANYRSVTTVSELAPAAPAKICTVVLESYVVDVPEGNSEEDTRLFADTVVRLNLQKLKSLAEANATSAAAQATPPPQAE
T1 sequence (Q9CAJ0 172-511 partner): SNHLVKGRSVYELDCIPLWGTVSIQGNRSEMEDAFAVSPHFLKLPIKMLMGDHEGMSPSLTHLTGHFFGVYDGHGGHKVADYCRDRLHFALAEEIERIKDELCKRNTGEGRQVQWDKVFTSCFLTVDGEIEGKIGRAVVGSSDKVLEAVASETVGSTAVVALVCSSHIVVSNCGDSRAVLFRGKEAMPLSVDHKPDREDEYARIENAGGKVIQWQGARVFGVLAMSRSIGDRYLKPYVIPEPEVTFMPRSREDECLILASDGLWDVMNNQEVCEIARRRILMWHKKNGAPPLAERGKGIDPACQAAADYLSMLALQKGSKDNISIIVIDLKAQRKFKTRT
In words: AlphaScreen, ABA-dependent receptor-PP2C interaction. It is filed as binding. From the text: AlphaScreen, ABA-dependent receptor-PP2C interaction on FePYR1-ABA-AtHAB1 | EC50 values of FePYL1, FePYR1, ZjPYL2 in interacting with AtHAB1
(In general: In Alpha technology, singlet oxygen from a donor bead excites a nearby acceptor bead.)

Another data set deals with T2, AtPYR1 (Arabidopsis thaliana, UniProt O49686).
T2 construct: gene PYR1; homodimer
T2 sequence (O49686 9-182): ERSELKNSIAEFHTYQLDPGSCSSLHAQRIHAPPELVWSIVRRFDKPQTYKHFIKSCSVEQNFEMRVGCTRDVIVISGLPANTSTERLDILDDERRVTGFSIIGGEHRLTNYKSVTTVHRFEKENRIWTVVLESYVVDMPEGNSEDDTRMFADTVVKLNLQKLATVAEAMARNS
As to the kind of experiment: ABA binding assay in supplement (method not given). The note with it: affinity reported comparable to FePYR1.

The next data set deals with T3, ZjPYL2 with AtHAB1 (Zoysia japonica, UniProt A0A2D1UXP2).
T3 construct: H6-SUMO-ZjPYL2 and biotin-MBP-AtHAB1 (172-511), E. coli; tags kept; with Protein phosphatase 2C 16 (HAB1, Arabidopsis thaliana)
T3 sequence (A0A2D1UXP2 1-216): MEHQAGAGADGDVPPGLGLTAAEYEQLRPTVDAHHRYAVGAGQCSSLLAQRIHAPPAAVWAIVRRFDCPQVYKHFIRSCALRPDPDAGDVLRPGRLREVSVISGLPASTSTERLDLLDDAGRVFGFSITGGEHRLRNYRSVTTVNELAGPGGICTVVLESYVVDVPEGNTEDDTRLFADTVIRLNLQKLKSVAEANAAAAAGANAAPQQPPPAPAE
T3 sequence (Q9CAJ0 172-511 partner): T1 sequence (Q9CAJ0 172-511 partner)
In words: AlphaScreen, ABA-dependent receptor-PP2C interaction. It is filed as binding. An excerpt:
AlphaScreen, ABA-dependent receptor-PP2C interaction on ZjPYL2 with AtHAB1 | EC50 values of FePYL1, FePYR1, ZjPYL2 in interacting with AtHAB1

The target in a further data set is T4, FePYL1 with AtHAB1 (Festuca elata, UniProt A0A2D1UXN6).
T4 construct: H6-SUMO-FePYL1 and biotin-MBP-AtHAB1 (172-511), E. coli; tags kept; with Protein phosphatase 2C 16 (HAB1, Arabidopsis thaliana)
T4 sequence (A0A2D1UXN6 1-204): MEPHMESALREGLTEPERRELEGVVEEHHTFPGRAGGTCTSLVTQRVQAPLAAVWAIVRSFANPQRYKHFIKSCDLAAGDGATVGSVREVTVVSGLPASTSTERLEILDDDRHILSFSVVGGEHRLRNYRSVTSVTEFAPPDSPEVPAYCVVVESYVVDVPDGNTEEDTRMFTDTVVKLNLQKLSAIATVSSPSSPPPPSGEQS
T4 sequence (Q9CAJ0 172-511 partner): T1 sequence (Q9CAJ0 172-511 partner)
The data set is described as above. The format is binding. From the text:
AlphaScreen, ABA-dependent receptor-PP2C interaction on FePYL1 with AtHAB1 | EC50 values of FePYL1, FePYR1, ZjPYL2 in interacting with AtHAB1

A further data set addresses T5, AtPYR1 with AtHAB1 (Arabidopsis thaliana, UniProt O49686).
T5 construct: gene PYR1; H6-SUMO-AtPYR1 (9-182) and biotin-MBP-AtHAB1 (172-511), E. coli; tags kept; with Protein phosphatase 2C 16
T5 sequence (O49686 9-182): T2 sequence (O49686 9-182)
T5 sequence (Q9CAJ0 172-511 partner): T1 sequence (Q9CAJ0 172-511 partner)
Described as above. It is filed as binding.

The target of data set [1] is T6, biotin-MBP-tagged AtHAB1 (residues 172-511), Q9CAJ0.
T6 chain: T1 sequence (Q9CAJ0 172-511 partner)
As to the kind of experiment: AlphaScreen. The note with it: chain shown with the change, read off a plot.

Data set [2] deals with the molecule itself. As to the kind of experiment: SEC; HPLC size-exclusion column chromatography with or without (+)-ABA; 43 kD protein marker. A general note: In gel filtration, larger molecules generally elute earlier.
Setting [3] is: ABA (100 μM), parent: est. 8400.
[4] abbreviates: DMSO (no ABA), parent: est. 2200.

In the case of `CC1=CC(=O)CC(C)(C)C1(O)/C=C/C(C)=C\C(=O)O` (stereo in doubt) [(+)-ABA], the EC50 on FePYR1-ABA-AtHAB1 came out at 2.3 µM; at ZjPYL2 with AtHAB1 it was 3.73 µM; on FePYL1 with AtHAB1, 0.671 µM; on AtPYR1 with AtHAB1, 7.36 µM. The “ABA binding assay in supplement (method not given)” value on AtPYR1 is listed as “the binding affinity with ABA ... are comparable between these two ABA receptors”.

B1: H6-SUMO-tagged FePYR1 L104A (protein)
chain: T1 sequence (A0A2D1UXN2 1-212) with L104A
In the case of B1, the response (photon counts) in data set [1] (setting [3]) turned out to be 2500.

B2: H6-SUMO-tagged FePYR1 L185C (protein)
chain: T1 sequence (A0A2D1UXN2 1-212) with L185C
In the case of B2, the response (photon counts) in data set [1] (ABA (5 μM), parent: est. 17000) worked out at 16000; in data set [1] (setting [4]), 2200.

B3: H6-SUMO-tagged FePYR1 I127A (protein)
chain: T1 sequence (A0A2D1UXN2 1-212) with I127A
Take B3: the response (photon counts) in data set [1] (ABA (5 μM), parent: est. 17000) was found to be 9500; in data set [1] (setting [4]), 2100.

B4: H6-SUMO-tagged FePYR1 E111A (protein)
chain: T1 sequence (A0A2D1UXN2 1-212) with E111A
Turning to B4, the response (photon counts) in data set [1] (setting [3]) was 800.

B5: H6-SUMO-tagged FePYR1 S102A (protein)
chain: T1 sequence (A0A2D1UXN2 1-212) with S102A
B5: the response (photon counts) in data set [1] (ABA (2 μM), parent: est. 6900) was determined as 750; in data set [1] (ABA (10 μM), parent: est. 12000) it was 3000; in data set [1] (setting [3]), 5800.

B6: AtPYR1 (size-exclusion chromatography, with or without ABA) (receptor, Arabidopsis, UniProt O49686 9-182, looked up)
chain: T2 sequence (O49686 9-182)
notes: Arabidopsis ABA receptor PYR1; also called AtPYR1-apo; source: E. coli, purified
On to B6, for which the “stoichiometry N” value in data set [2] came to 2.

Usually EC50 stands for the concentration needed to bring the measured effect to its halfway point. High values mean a need for much substance, low ones an effect from little substance. The stoichiometry N is a count of units in the complex or per binding partner.
